The target in assay [1] is T1, glycoprotein B (gB) of HSV-1 strain F on infected Vero cells (Herpes simplex virus type 1, strain F, UniProt P06436 30-903).
T1 construct: whole, on cells; also called HSV-1 F; Wild-type strain F
Put plainly: flow cytometry on HSV-infected Vero cells (FIG. 5). A general note: A flow cytometer gives signals particle by particle.

Assay [2] concerns the target T1, glycoprotein B (gB) of HSV-1 strain F …. The assay can be described thus: cell-based or functional assay.
Assay [3] has the same target. The assay can be described thus: flow cytometry on HSV-1 F infected Vero cells.
Assay [4] shares this target. Put plainly: flow cytometry, equilibrium binding to gB on HSV-1 F infected Vero cells, KD from nonlinear regression fit.
The target in assay [5] is T2, glycoprotein B (gB) of HSV-2 strain G on infected Vero cells (Herpes simplex virus type 2, strain G).
T2 construct: whole, on cells; also called HSV-2 G
Put plainly: flow cytometry on HSV-2 G infected Vero cells.

For assay [6], the target named is T2, glycoprotein B (gB) of HSV-2 strain G …. Put plainly: flow cytometry, equilibrium binding curves on HSV-2 G infected Vero cells.
Assay [7] addresses designed 12-mer peptide PFYGYRE-G-FEDF. The assay can be described thus: cellulose-bound peptides probed with MAb 2c, chemiluminescence.
Assay [8] deals with T3, duotope 179YSQFMG184-βA-300FYGYRE305.
T3 construct: also called YSQFMG-βA-FYGYRE
The assay can be described thus: peptide and duotope microarray on glass slides, mAb 2c, fluorescence laser scan, signal intensity (LU).

Assay [9] addresses T4, duotope 186FED188-βA-βA-300FYGYRE305.
T4 construct: also called FED-βA-βA-FYGYRE
The description is as above.

In assay [10] the target is T5, truncated HSV-1 glycoprotein B gB(1-223) (Herpes simplex virus type 1, strain 17+, UniProt P10211 31-223).
T5 construct: range 31-223
Put plainly: indirect immunofluorescence on transfected COS-1 cells.

The target in assay [11] is T6, truncated HSV-1 glycoprotein B gB(436-642) (Herpes simplex virus type 1, strain 17+, UniProt P10211 436-642).
T6 construct: range 436-642
Described as above.

Assay [12] deals with T7, truncated HSV-1 glycoprotein B gB(1-130) (Herpes simplex virus type 1, strain 17+, UniProt P10211 31-130).
T7 construct: range 31-130
The description is as above.

The target of assay [13] is T1, glycoprotein B (gB) of HSV-1 strain F …. The assay can be described thus: cell-based or functional assay. This is another data set of the same source.
Assay [14] has the same target. Put plainly: flow cytometry competition on HSV-1 infected Vero cells against 100 nM mAb 2c.

B1: humanized mAb h2c-V2 (antibody, V domains shown)
VH: QVTLKESGPALVKPTQTLTLTCTFSGFSLSTSGMSVGWIRQPPGKALEWLAHIWWNNDKYYKPALKSRLTISKDTSKKQVVLTMTNMDPVDTATYYCARIYYGYRPYAMDYWGQGTLVTVSS
VL: DIVMTQTPLSLPVTPGEPASISCRSSQSIVHSNGNTYLEWYLQKPGQSPQLLIYKVSNRFSGVPDRFSGSGSGTDFTLKISRVEAEDVGVYYCFQGSHVPWSFGQGTKVEIKR
notes: also called hu2c-V2
In general, EC50 (read off the curve) refers to the midpoint of the concentration-response curve. A high value points to lower potency in that assay. As a reminder, the Kd is the equilibrium constant for the complex coming apart. A low value points to higher affinity. In the case of B1, the “fold lower affinity in comparison to mAb 2c” value in assay [1] was 2 fold. Besides, in [2], the “concentration [nM] required for 50% neutralization of 100 TCID50” value was 5.1 nM and the “concentration [nM] required for 100% neutralization of 100 TCID50” value was 15.6 nM. Besides, the “EC50 (read off the curve)” value in [3] was about 20 nM. The same molecule yielded a Kd in [4] of 21.4 nM.

B2: 2c-F(ab′)2 (other)
VH: QVTLKESGPGILLPSQTLSLTCSFSGFSLSTSGMSVGWIRQPSGKGLEWLGHIWWNNDKYYKPALKSRLTISKDTSNKQVFLKIASVVTADTATYYCARIYYGYRPYAMDYWGQGTSVTVSS
VL: DVLMTQTPLSLPVSLGDQASISCRSSQSIVHSNGNTYLEWYLQKPGQSPKLLIYKVSNRFSGVPDRFSGSGSGTDFTLKISRVEAEDLGVYYCFQGSHVPWSFGGGTKLEIKR
notes: also called F(ab′)-2-fragment; F(ab)2-fragment of mAb 2c
For B2, the “EC50 (read off the curve)” value in assay [5] is about 8 nM. For the same molecule, the Kd in assay [6] stood at 8.8 nM.

B3: murine monoclonal antibody (mAb) 2c (antibody, V domains shown)
VH: QVTLKESGPGILLPSQTLSLTCSFSGFSLSTSGMSVGWIRQPSGKGLEWLGHIWWNNDKYYKPALKSRLTISKDTSNKQVFLKIASVVTADTATYYCARIYYGYRPYAMDYWGQGTSVTVSS
VL: DVLMTQTPLSLPVSLGDQASISCRSSQSIVHSNGNTYLEWYLQKPGQSPKLLIYKVSNRFSGVPDRFSGSGSGTDFTLKISRVEAEDLGVYYCFQGSHVPWSFGGGTKLEIKR
notes: also called 2c IgG; 2c-IgG
B3: the binding result is “binds” in [7]; “binds” in assay [8]; “binds” in [9]; “no binding” in assay [10]; “no binding” in [11]; “no binding” in [12].

B4: 2c-Fab (Fab, V domains shown)
VH: QVTLKESGPGILLPSQTLSLTCSFSGFSLSTSGMSVGWIRQPSGKGLEWLGHIWWNNDKYYKPALKSRLTISKDTSNKQVFLKIASVVTADTATYYCARIYYGYRPYAMDYWGQGTSVTVSS
VL: DVLMTQTPLSLPVSLGDQASISCRSSQSIVHSNGNTYLEWYLQKPGQSPKLLIYKVSNRFSGVPDRFSGSGSGTDFTLKISRVEAEDLGVYYCFQGSHVPWSFGGGTKLEIKR
notes: also called Fab-fragment of mAb 2c; monovalent 2c-Fab fragment
In the case of B4, the “EC50 (read off the curve)” value in assay [5] is about 20 nM. Also, the Kd in assay [6] turned out to be 17.7 nM.

B5: humanized mAb h2c-V1 (antibody, V domains shown)
VH: QVTLKESGPALVKPTQTLTLTCTFSGFSLSTSGMSVGWIRQPPGKALEWLAHIWWNNDKYYKPALKSRLTISKDTSKNQVVLTMTNMDPVDTATYYCARIYYGYRPYAMDYWGQGTLVTVSS
VL: DIVMTQTPLSLPVTPGEPASISCRSSQSIVHSNGNTYLEWYLQKPGQSPQLLIYKVSNRFSGVPDRFSGSGSGTDFTLKISRVEAEDVGVYYCFQGSHVPWSFGQGTKVEIKR
notes: also called hu2c-V1; mAb hu2c-V1
As for B5, in assay [2], the “concentration [nM] required for 50% neutralization of 100 TCID50” value came to 3.7 nM and the “concentration [nM] required for 100% neutralization of 100 TCID50” value came to 7.8 nM. For the same molecule, in assay [3], the “EC50 (read off the curve)” value is about 10 nM. For the same molecule, the “inhibition of HSV-1 F cell-to-cell spread in Vero cell monolayers” value in assay [13] came out at 500 nM. Besides, the Kd in [4] is 12.8 nM.

B6: humanized mAb h2c-V3 (antibody, V domains shown)
VH: QVTLKESGPALVKPTQTLTLTCTFSGFSLSTSGMSVGWIRQPPGKALEWLAHIWWNNDKYYKPALKSRLTISKDTSKKQVFLTMTNMDPVDTATYYCARIYYGYRPYAMDYWGQGTLVTVSS
VL: DIVMTQTPLSLPVTPGEPASISCRSSQSIVHSNGNTYLEWYLQKPGQSPQLLIYKVSNRFSGVPDRFSGSGSGTDFTLKISRVEAEDVGVYYCFQGSHVPWSFGQGTKVEIKR
notes: also called hu2c-V3
Turning to B6, the “IC50 (read off the curve)” value in assay [14] is about 100 nM. In [2], the “concentration [nM] required for 50% neutralization of 100 TCID50” value is 3.3 nM and the “concentration [nM] required for 100% neutralization of 100 TCID50” value amounted to 7.8 nM. In addition, in assay [3], the “EC50 (read off the curve)” value is about 10 nM. This molecule also had an equilibrium dissociation constant (Kd) in [4] of 11.4 nM.

B7: humanized mAb h2c-V4 (antibody, V domains shown)
VH: QVTLKESGPALVKPTQTLTLTCTFSGFSLSTSGMSVGWIRQPPGKALEWLAHIWWNNDKYYKPALKSRLTISKDTSKKQVFLTMTNMDPVDTATYYCARIYYGYRPYAMDYWGQGTLVTVSS
VL: DVVMTQTPLSLPVTPGEPASISCRSSQSIVHSNGNTYLEWYLQKPGQSPQLLIYKVSNRFSGVPDRFSGSGSGTDFTLKISRVEAEDVGVYYCFQGSHVPWSFGQGTKVEIKR
notes: also called hu2c-V4
B7: in assay [2], the “concentration [nM] required for 50% neutralization of 100 TCID50” value amounted to 3.7 nM and the “concentration [nM] required for 100% neutralization of 100 TCID50” value amounted to 7.8 nM. In addition, in [3], the “EC50 (read off the curve)” value is about 10 nM. Binding in assay [4] was put at a Kd of 13.7 nM.

For the origin of these results see US20130058952A1 (UNIVERSIT T DUISBERG ESSEN, published 2013).
